Experimental data published in paper PMC3520067.

Target: H3K4Me3 peptide
Assay: ITC

MORC3 CW domain (domain or fragment) showed a Kd of 600 nM.

“recombinant SPIN1 (from UniProt Q9Y657 1-262) (natural protein)” showed a Kd of 1100 nM.
